Earlier results on four substances are cited in PMC8864681.

Among the targets are Asp28 (UniProt position 50, MTDDIDEVRWE); Asp26 (UniProt position 26, KLVVVDFSATW); Asp14 (UniProt position 40, ERQHMDSSTSA); Asp67 (UniProt position 1513, LKPGVDYTITV).

As to “T-cell surface antigen CD2 (cell adhesion molecule CD2) (Rattus rattus as printed ('black rat'); the PDB 1HNG source is commonly annotated as rat (Rattus norvegicus))”, the pKa (as a rule, the negative logarithm of the acid dissociation constant) with Asp28 was 3.57.

“Thioredoxin (recombinant human) (Homo sapiens)”: in the data set with Asp26, the pKa was 9.9.

As for “Ribonuclease A (pancreatic ribonuclease) (Bos taurus)”, the pKa with Asp14 was 2.0.

In the case of “Fibronectin, tenth type III cell adhesion module (FN10) (Homo sapiens)”, the pKa with Asp67 is given as 4.2.
